Experimental data as given in patent US20250027068.

B1: PRT-464 (protein)
chain: MVTSVWTKGVTPPANFTQGEDVFHAPYVANQGWYDITKAFDGGDDLLCGAATAGNMLHWWFDQNKDQIERYLKEHPEKQKINFNGEQMFDVKEAIDTKDSQTNSELFNYFKEKAFPYLSTKHLGVFPDHVLDMFINGYRLSLTNHGPTPVKEGSKDPRGGIFDAVFTRGDQSKLLTSRHDLKNKTLKEISDLIKQELTEGKALGLSHTYANVRINHVINLWGADFDSEGNLKAIYVTDSDSNASIGMKKYFVGVNSAGKVAISAKEIKEDNIGAQVLGLFTLSTGQDIWNQTNLEHHHHHH
B2: PRT-465 (protein)
chain: MVTSVWTKGVTPPANFTQGEDVFHAPYVANQGWYDITKTFNGKDDLLCGAATAGNMLHWWFDQNKDQIERYLKEHPEKQKINFNGEQMFDVKEAIDTKDSQTDSKLFEYFKEKAFPYLSTKHLGVFPDHVLDMFINGYRLSLTNHGPTPVKEGSKDPRGGIFDAVFTRGDQSKLLTSRHDLKNKTLKEISDLIKQELTEGKALGLSHTYANVRINHVINLWGADFDSEGNLKAIYVTDSDSNASIGMKKYFVGVNSAGKVAISAKEIKEDNIGAQVLGLFTLSTGQDIWNQTNLEHHHHHH
B3: PRT-500 (protein)
chain: MVTSVWTKGVTPPADFTQGEDVFHAPYVANQGWYDITKAFDGGDDLLCGAATAGNMLHWWFDQNKEYIEAYLKKHPEKQKIMFGDQELLDVRKAINTKGSQKNSELFNYFRDKAFPNLSARRLGVMPDLVLDMFINGYYLNVTKTQTTDVNRTYQEKDKRGGIFDAVFTRGDQSKLLTSRHDLKNKGLKEISDLIKQELTEGKALGLSHTYANVRINHVINLWGADFDSDGNLKAIYVTDSDSNASIGMKKYFVGVNSAGKVAISAKEIKEDNIGAQVLGLFTLSTGQDIWNQTNLEHHHHHH
B4: PRT-474 (protein)
chain: MVTSVWTKGVTPPTDFRKIVDGNIAYYHAPYKAGQGWYDITKAFDGGDDLLCGAATAGNMLHWWFDQNKEQIENYLKKHPEKQKINFNGEQMFDVKEAIDTKDSQTNSELFNYFKEKAFPYLSTKHLGVFPDHVIDMFINGYRLSLTNHGPTPVKRGSKDPRGGIFDAVFTRGDQSKLLTNRHDLKNKTLKEISDLIKQELTEGKALGISHTYANVRINHVINLWGADFDAEGNLEAIYVTDSDSNASIGMKKYFVGVNSNGKVAISAKEIEEDNIGAQVLGLFTLSTGQDIWNQTNLEHHHHHH
B5: PRT-481 (protein)
chain: MVTSVWTKGVTPPTDFIYGEDVLHAPYKAGQGWYDITKAFDGGDDLLCGAATAGNMLHWWFDQNKEQIENYLKKHPEKQKINFNGEQMFDVKEAIDTKDSQTNSELFNYFKEKAFPYLSTKHLGVFPDHVIDMFINGYRLSLTNHGPTPVKRQEKDPRGGIFDAVFGRGDQTKLLTNRHDLKNKTLKEISDLIKQELTEGKALGISHTYANVRINHVINLWGADFDAEGNLEAIYVTDSDSNASIGMKKYFVGVNSNGKVAISAKEIEEDNIGAQVLGLFTLSTGQKIWNKTNLEHHHHHH
B6: PRT-451 (protein)
chain: MVTSVWTKGVTPPANFRKIVDGNIAYYHAPYKANQGWYDITKTFNGKDDLLCGAATAGNMLHWWFDQNKDQIEAYLKEHPEKQKINFNGEQMFDVKEAIDTKDDQTNSKLFEYFKEKAFPYLSTKHLGVFPDHVLDMFINGYRLSLTNHGPTPVKEGSKDPRGGIFDAVFTRGDQSKLLTSRHDLKNKTLKEISDLIKQELTEGKALALSHTYANVRINHVINLWGADFDSNGNLEAIYVTDSDSNASIGMKKYFVGVNSAGKVAISAKEIEDDNIGAQVLGLFTLSTGQDIWNQTNLEHHHHHH
B7: PRT-463 (protein)
chain: MVTSVWTKGVTPPANFRKIVDGNIAYYHAPYVANQGWYDITKTFNGKDDLLCGAATAGNMLHWWFDQNKDQIERYLKEHPEKQKINFNGEQMFDVKEAIDTKDSQTDSKLFEYFKEKAFPYLSTKHLGVFPDHVLDMFINGYRLSLTNHGPTPVKEGSKDPRGGIFDAVFTRGDQSKLLTSRHDLKNKTLKEISDLIKQELTEGKALGLSHTYANVRINHVINLWGADFDSEGNLKAIYVTDSDSNASIGMKKYFVGVNSAGKVAISAKEIKEDNIGAQVLGLFTLSTGQDIWNQTNLEHHHHHH
B8: PRT-514 (protein)
chain: MITSVWTKGVTPPTDFIKGEDVFHAPYKAGQGWYDITKAFDGGDDLLCGAATAGNMLHWWFDQNKEEIEAYLKKHPEKQKIMFGDQELLDVRKVINTKDSQTNSALFNYFKDKAFPNLSARRLGVMPDLVLDMFINGYYLNVYKTQTTDVNRQEQTKDRRGGIFDAVFGRGDQTKLLTERHDFKEKTLNEISQLIKQELTEGKALGLSHTYANVRINHVINLWGADFDAEGNLEAIYVTDSDSNASIGMKKYFVGVNSAGKVAISAKEIKEDNIGAQVLGLFTLSTGQKIWNKTNLEHHHHHH
B9: PRT-614 (protein)
chain: MQITSVWTKGVKPLTPEQFRYNNEDVIHAPYLAHQGWYDITKAFDGKDNLLCGAATAGNMLHWWFDQNKTEIEAYLSKHPEKQKIIFNNQELFDLRAAIDTKDSQTNSQLFNYFRDKAFPNLSARQLGVMPDLVLDMFINGYYLNVFKTQSTDVNRPYQDKDKRGGIFDDVFTRGDQTTLLTARHDLKNGGLNDISTIIKQELTEGRALALSHTYANVSISHVINLWGADFNAEGNLEAIYVTDSDANASIGMKKYKVGINAHGHVAISAKKIEGENIGAQVLGLFTLSSGKDIWQKLSLEHHHHHH
B10: PRT-662 (protein)
chain: MQITSVWTKGVTPLTPEQFRYNNEDVFHAPYLAHQGWYDITKAFDGKDNLLCGAATAGNMLHWWFDQNKTEIEAYLSKHPEKQKIIFNNQELFDLRAAINTKDSQTNSQLFNYFRDKAFPNLSARQLGVMPDLVLDMFINGYYLNVFKTQSTDVNRPYQDKDKRGGIFDAVFTRGDQTTLLTARHDLKNKGLNDISTLIKQELTEGRALALSHTYANVSISHVINLWGADFNAEGNLEAIYVTDSDANASIGMKKYFVGINASGHVAISAKKIEGENIGAQVLGLFTLSSGKDIWQKLSLEHHHHHH
B11: PRT-523 (protein)
chain: MITSVWTKGVTPPTDFIKGEDVFHAPYKAGQGWYDITKTFNGKDNLLCGAATAGNMLHWWFDQNKEEIEAYLKKHPEKQKIIFNNQELFDLKAVINTKDSQTNSALFNYFKDKAFPNLSARRLGVFPDLVLDMFINGYYLNVYKTQTTDVNRTYQTKDRRGGIFDAVFTRGVQSKLLTERHDLKNKTLKEISDLIKQELTEGKALGLSHTYANVRINHVINLWGADFDSNGNLEAIYVTDSDTNASIGMKKYFVGVNSAGKVAISAKEIKEDNIGAQVLGLFTLSTGQDIWNQTNLEHHHHHH
B12: PRT-453 (protein)
chain: MVTSVWTKGVTPPANFTQGEDVFHAPYKANQGWYDITKTFNGKDDLLCGAATAGNMLHWWFDQNKDQIEAYLKEHPEKQKINFNGEQMFDVKEAIDTKDDQTNSKLFEYFKEKAFPYLSTKHLGVFPDHVLDMFINGYRLSLTNHGPTPVKEGSKDPRGGIFDAVFTRGDQSKLLTSRHDLKNKTLKEISDLIKQELTEGKALALSHTYANVRINHVINLWGADFDSNGNLEAIYVTDSDSNASIGMKKYFVGVNSAGKVAISAKEIEDDNIGAQVLGLFTLSTGQDIWNQTNLEHHHHHH
B13: PRT-519 (protein)
chain: MVTSVWTKGVTPPTDFIKGEDVFHAPYKAGQGWYDITKTFNGKDNLLCGAATAGNMLHWWFDQNKEYIEAYLKKHPEKQKIIFNNQELFDLKAAINTKGSQKNSELFNYFRDKAFPNLSARRLGVFPDLVLDMFINGYYLNVTKTQTTDVNRTYQEKDKRGGIFDAVFTRGVQSKLLTSRHDLKNKGLKEISDLIKQELTEGKALGLSHTYANVRINHVINLWGADFDSDGNLKAIYVTDSDTNASIGMKKYFVGVNSAGKVAISAKEIKEDNIGAQVLGLFTLSTGQDIWNQTNLEHHHHHH
B14: PRT-487 (protein)
chain: MVTSVWTKGVTPPTDFIKGEDVFHAPYKAGQGWYDITKTFNGKDNLLCGAATAGNMLHWWFDQNKDQIERYLKEHPEKQKIIFNNQELFDLKAAIDTKDSQTDSKLFEYFKEKAFPYLSTKHLGVFPDHVLDMFINGYRLSLTNHGPTPVKEGSKDKRGGIFDAVFTRGVQSKLLTSRHDLKNKTLKEISDLIKQELTEGKALGLSHTYANVRINHVINLWGADFDSEGNLKAIYVTDSDTNASIGMKKYFVGVNSAGKVAISAKEIKEDNIGAQVLGLFTLSTGQDIWNQTNLEHHHHHH

Target: pooled human IgG (human IgG1, 2, 3 and 4)

Row | Protein | Enzyme Activity Endpoint Assay: Fab′2 [ng/µL] | Enzyme Activity Endpoint Assay: Fc [ng/µL] | Enzyme Activity Endpoint Assay: IgG [ng/µL] | Enzyme Activity Endpoint Assay: scIgG [ng/µL]
1 | B1 | 0 | 58 | 0 | 0
2 | B2 | 504 | 296 | 111 | 501
3 | B3 | 25 | 30 | 0 | 0
4 | B4 | 462 | 156 | 0 | 229
5 | B5 | 1380 | 429 | 65 | 0
6 | B6 | 1250 | 324 | 0 | 0
7 | B7 | 821 | 259 | 0 | 0
8 | B8 | 64 | 37 | 0 | 0
9 | B9 | 0 | 0 | 0 | 0
10 | B10 | 8 | 13 | 0 | 0
11 | B11 | 17 | 24 | 0 | 0
12 | B12 | 1620 | 607 | 17 | 0
13 | B13 | 0 | 17 | 0 | 0
14 | B14 | 0 | 22 | 0 | 0
